# B1: Angiopoietin-2 (Homo sapiens), O15123-1 (parent)
# chain: MWQIVFFTLSCDLVLAAAYNNFRKSMDSIGKKQYQVQHGSCSYTFLLPEMDNCRSSSSPYVSNAVQRDAPLEYDDSVQRLQVLENIMENNTQWLMKLENYIQDNMKKEMVEIQQNAVQNQTAVMIEIGTNLLNQTAEQTRKLTDVEAQVLNQTTRLELQLLEHSLSTNKLEKQILDQTSEINKLQDKNSFLEKKVLAMEDKHIIQLQSIKEEKDQLQVLVSKQNSIIEELEKKIVTATVNNSVLQKQQHDLMETVNNLLTMMSTSNSAKDPTVAKEEQISFRDCAEVFKSGHTTNGIYTLTFPNSTEEIKAYCDMEAGGGGWTIIQRREDGSVDFQRTWKEYKVGFGNPSGEYWLGNEFVSQLTNQQRYVLKIHLKDWEGNEAYSLYEHFYLSSEELNYRIHLKGLTGTAGKISSISQPGNDFSTKDGDNDKCICKCSQMLTGGWWFDACGPSNLNGMYYPQRQNTNKFNGIKWYYWKGSGYSLKATTMMIRPADF
# Variants of: B1
# Conditions: with tie2_human TEK
row,effect of a mutation on the interaction,Variant
1,disrupting interaction,MWQIVFFTLSCDLVLAAAYNNFRKSMDSIGKKQYQVQHGSCSYTFLLPEMDNCRSSSSPYVSNAVQRDAPLEYDDSVQRLQVLENIMENNTQWLMKLENYIQDNMKKEMVEIQQNAVQNQTAVMIEIGTNLLNQTAEQTRKLTDVEAQVLNQTTRLELQLLEHSLSTNKLEKQILDQTSEINKLQDKNSFLEKKVLAMEDKHIIQLQSIKEEKDQLQVLVSKQNSIIEELEKKIVTATVNNSVLQKQQHDLMETVNNLLTMMSTSNSAKDPTVAKEEQISFRDCAEVFKSGHTTNGIYTLTFPNSTEEIKAYCDMEAGGGGWTIIQRREDGSVDFQRTWKEYKVGFGNPSGEYWLGNEFVSQLTNQQRYVLKIHLKDWEGNEAYSLYEHFYLSSEELNYRIHLKGLTGTAGKISSISQPGNDFSTKDGDNDKCICKCSQMLTGGWWFDACGPSNLNGMYYPQRQNTNEFNGIEWYYWKGSGYSLKATTMMIRPADF [K468E;K473E]
2,disrupting interaction,MWQIVFFTLSCDLVLAAAYNNFRKSMDSIGKKQYQVQHGSCSYTFLLPEMDNCRSSSSPYVSNAVQRDAPLEYDDSVQRLQVLENIMENNTQWLMKLENYIQDNMKKEMVEIQQNAVQNQTAVMIEIGTNLLNQTAEQTRKLTDVEAQVLNQTTRLELQLLEHSLSTNKLEKQILDQTSEINKLQDKNSFLEKKVLAMEDKHIIQLQSIKEEKDQLQVLVSKQNSIIEELEKKIVTATVNNSVLQKQQHDLMETVNNLLTMMSTSNSAKDPTVAKEEQISFRDCAEVFKSGHTTNGIYTLTFPNSTEEIKAYCDMEAGGGGWTIIQRREDGSVDFQRTWKEYKVGFGNPSGEYWLGNEFVSQLTNQQRYVLKIHLKDWEGNEAYSLYEHFYLSSEELNYRIHLKGLTGTAGKISSISQPGNDFSTKDGDNDKCICKCSQMLTGGWWFDACGPSNLNGMYYPQRQNTNKANGIKWAAWKGSGYSLKATTMMIRPADF [F469A;Y475A;Y476A]

# Reference: IntAct's records for PubMed 15893672
